Measurements taken from publication PMC7049810 (2020).

B1: MepS (enzyme)
chain: CSANNTAKNMHPETRAVGSETSSLQASQDEFENLVRNVDVKSRIMDQYADWKGVRYRLGGSTKKGIDCSGFVQRTFREQFGLELPRSTYEQQEMGKSVSRSNLRTGDLVLFRAGSTGRHVGIYIGNNQFVHASTSSGVIISSMNEPYWKKRYNEARRVLSRS
modifications: where used as fl-MepS in MST: NT647 RED-NHS dye on amines

Legend:
Assay in all cases: MST
[1] = molecular target: T1, PBP1A, purified (Escherichia coli, UniProt P02918 1-850, NT647 RED-NHS dye on amines (PBP1A was the labelled protein in all MST assays))
T1 chain: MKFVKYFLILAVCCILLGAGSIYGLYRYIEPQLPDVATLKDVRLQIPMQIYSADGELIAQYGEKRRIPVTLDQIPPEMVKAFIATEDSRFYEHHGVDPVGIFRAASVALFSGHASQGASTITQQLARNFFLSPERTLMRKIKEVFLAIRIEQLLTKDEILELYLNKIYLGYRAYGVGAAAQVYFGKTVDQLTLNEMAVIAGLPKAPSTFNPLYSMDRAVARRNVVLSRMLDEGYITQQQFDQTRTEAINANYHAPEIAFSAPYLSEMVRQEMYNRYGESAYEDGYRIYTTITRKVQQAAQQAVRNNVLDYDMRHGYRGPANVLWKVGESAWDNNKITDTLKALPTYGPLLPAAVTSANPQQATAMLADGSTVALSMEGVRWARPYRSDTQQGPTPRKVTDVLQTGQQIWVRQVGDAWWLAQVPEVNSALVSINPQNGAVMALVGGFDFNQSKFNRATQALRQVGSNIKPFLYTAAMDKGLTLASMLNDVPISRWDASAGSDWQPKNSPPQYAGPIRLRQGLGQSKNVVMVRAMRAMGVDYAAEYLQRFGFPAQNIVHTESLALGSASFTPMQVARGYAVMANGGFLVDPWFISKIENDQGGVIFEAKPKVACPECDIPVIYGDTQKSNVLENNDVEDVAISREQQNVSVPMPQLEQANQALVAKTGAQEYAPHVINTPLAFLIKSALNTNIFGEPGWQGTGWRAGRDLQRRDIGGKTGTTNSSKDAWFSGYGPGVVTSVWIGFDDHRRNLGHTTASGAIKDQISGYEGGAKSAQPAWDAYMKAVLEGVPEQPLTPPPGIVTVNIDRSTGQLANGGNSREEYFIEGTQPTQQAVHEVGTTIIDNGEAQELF

[2] = molecular target: T2, PBP4, native, purified (Escherichia coli, UniProt P24228 21-477, where used as the labelled protein in MST: NT647 RED-NHS dye on amines)
T2 chain: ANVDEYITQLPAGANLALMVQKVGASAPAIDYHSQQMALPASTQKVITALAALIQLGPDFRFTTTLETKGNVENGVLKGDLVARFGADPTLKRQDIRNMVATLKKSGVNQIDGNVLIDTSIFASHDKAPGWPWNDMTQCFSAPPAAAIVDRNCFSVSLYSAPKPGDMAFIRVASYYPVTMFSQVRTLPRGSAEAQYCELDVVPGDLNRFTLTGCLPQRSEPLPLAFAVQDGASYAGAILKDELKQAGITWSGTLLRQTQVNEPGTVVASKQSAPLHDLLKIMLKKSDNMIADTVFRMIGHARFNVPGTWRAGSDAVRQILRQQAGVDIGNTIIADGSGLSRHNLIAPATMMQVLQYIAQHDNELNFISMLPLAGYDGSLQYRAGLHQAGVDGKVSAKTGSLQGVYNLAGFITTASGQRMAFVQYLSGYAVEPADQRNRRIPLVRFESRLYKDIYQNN

[3] = molecular target: B1

B1
Kd [1]: 0.091 µM

B2: PBP7, purified (enzyme)
chain: KTAAATTASQPEIASGSAMIVDLNTNKVIYSNHPDLVRPIASISKLMTAMVVLDARLPLDEKLKVDISQTPEMKGVYSRVRLNSEISRKDMLLLALMSSENRAAASLAHHYPGGYKAFIKAMNAKAKSLGMNNTRFVEPTGLSVHNVSTARDLTKLLIASKQYPLIGQLSTTREDMATFSNPTYTLPFRNTNHLVYRDNWNIQLTKTGFTNAAGHCLVMRTVINNKPVALVVMDAFGKYTHFADASRLRTWIETGKVMPVPAAALSYKKQKAAQMAAAGQTAQND
modifications: where used as the labelled protein in MST: NT647 RED-NHS dye on amines
Kd [2]: 0.332 µM

B3: MepM (enzyme)
chain: YHRDATPIVKTIELEQNEIRSLLPEASEPIDQAAQEDEAIPQDELDDKIAGEAGVHEYVVSTGDTLSSILNQYGIDMGDITQLAAADKELRNLKIGQQLSWTLTADGELQRLTWEVSRRETRTYDRTAANGFKMTSEMQQGEWVNNLLKGTVGGSFVASARNAGLTSAEVSAVIKAMQWQMDFRKLKKGDEFAVLMSREMLDGKREQSQLLGVRLRSEGKDYYAIRAEDGKFYDRNGTGLAKGFLRFPTAKQFRISSNFNPRRTNPVTGRVAPHRGVDFAMPQGTPVLSVGDGEVVVAKRSGAAGYYVAIRHGRSYTTRYMHLRKILVKPGQKVKRGDRIALSGNTGRSTGPHLHYEVWINQQAVNPLTAKLPRTEGLTGSDRREFLAQAKEIVPQLRFD
Kd [3]: 1.18 µM
